Assay [1] deals with recombinant human CD36 (human) (UniProt P16671). The assay can be described thus: BLI; Octet Qke; hisCD36 immobilised on Ni-NTA biosensors, CIDR domains in solution; kinetics buffer (PBS, 0.02% Tween-20, 100 μg/ml bovine serum albumin, 0.005% sodium azide); association 600 or 900 s, dissociation 300 to 600 s; 1:1 fit.
Assay [2] shares this target. As to the kind of experiment: BLI; Octet Qke; hisCD36 immobilised on Ni-NTA biosensors, CIDR domain in kinetics buffer (PBS, 0.02% Tween-20, 100 ug/ml BSA, 0.005% sodium azide); association 600 or 900 s, dissociation 300 to 600 s; double-reference subtracted data fitted to a 1:1 binding model.
Assay [3] concerns the target human EPCR on CHO745-EPCR cells (human) (UniProt Q9UNN8). The assay can be described thus: flow cytometry on cells; competition: CHO745-EPCR cells coincubated for 30 min with 50 μg/ml (660 nM) or 250 μg/ml (3.3 µM) CIDR domains and 25 μg/ml (446 nM) APC; APC detected by anti-human protein C antibody.
Assay [4] has as its target recombinant human endothelial protein C receptor (human) (UniProt Q9UNN8). As to the kind of experiment: BLI; Octet Qke; EPCR on the biosensor, CIDR domain in solution; protocol as reported previously (ref. 40); double-reference subtracted data fitted to a 1:1 binding model. (In general: Biolayer interferometry detects binding as a change in optical thickness at a sensor tip.)

Chain of recombinant human CD36 (human) (P16671 whole entry, the tested form may be a part): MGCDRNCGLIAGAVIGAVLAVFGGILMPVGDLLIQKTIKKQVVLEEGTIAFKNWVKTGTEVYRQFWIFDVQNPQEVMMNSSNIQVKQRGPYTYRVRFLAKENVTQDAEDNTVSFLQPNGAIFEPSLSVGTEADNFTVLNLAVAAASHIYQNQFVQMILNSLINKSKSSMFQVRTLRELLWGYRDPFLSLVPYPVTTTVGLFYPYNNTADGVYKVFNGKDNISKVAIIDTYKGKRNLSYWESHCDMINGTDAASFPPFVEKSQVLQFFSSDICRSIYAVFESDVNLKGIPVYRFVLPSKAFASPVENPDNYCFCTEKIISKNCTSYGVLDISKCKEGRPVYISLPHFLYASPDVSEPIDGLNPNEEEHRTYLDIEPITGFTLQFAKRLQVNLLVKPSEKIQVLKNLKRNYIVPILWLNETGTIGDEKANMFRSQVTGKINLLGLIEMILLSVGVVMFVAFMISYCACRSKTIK
Chain of human EPCR on CHO745-EPCR cells (human) (Q9UNN8 18-238): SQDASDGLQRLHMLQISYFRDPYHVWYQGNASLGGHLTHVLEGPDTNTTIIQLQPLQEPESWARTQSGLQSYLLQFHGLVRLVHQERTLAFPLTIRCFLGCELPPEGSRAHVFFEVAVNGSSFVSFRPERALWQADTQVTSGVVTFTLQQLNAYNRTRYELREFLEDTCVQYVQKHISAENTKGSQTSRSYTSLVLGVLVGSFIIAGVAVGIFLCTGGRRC
Chain of recombinant human endothelial protein C receptor (human) (Q9UNN8 18-238): as above

Turning to “P. falciparum var14 CIDRα5 (domain or fragment)”, the Kd – broadly, the equilibrium constant for the complex coming apart – in assay [1] is 3.2 nM. In addition, in assay [2], the koff (as a rule, the first-order rate constant of dissociation) came out at 2.99e-05 s⁻¹ and the kon (in general, the second-order rate constant of association) is 9280 M⁻¹ s⁻¹.

On to “P. falciparum var07 CIDRα1.4 (domain or fragment)”, for which, in assay [3], the percent reduction of APC binding at 50 μg/ml CIDR amounted to 85% and the percent reduction of APC binding at 250 μg/ml CIDR was determined as 98%.

In the case of “P. reichenowi var71 CIDRα1.4 (domain or fragment)”, in assay [4], the koff came out at 0.000268 s⁻¹ and the kon was 11800 M⁻¹ s⁻¹.

For the origin of these results see PMC5227068.
